The record followed here is PMC2173217 (The Journal of Cell Biology, 2002).

Read-outs that look alike come from different tables or passages of the source.

To fix the notation:
B1: Sar1p (enzyme)
chain: not shown
B2: Sec13/31p (complex, S. cerevisiae)
chain 1: MVVIANAHNELIHDAVLDYYGKRLATCSSDKTIKIFEVEGETHKLIDTLTGHEGPVWRVDWAHPKFGTILASCSYDGKVLIWKEENGRWSQIAVHAVHSASVNSVQWAPHEYGPLLLVASSDGKVSVVEFKENGTTSPIIIDAHAIGVNSASWAPATIEEDGEHNGTKESRKFVTGGADNLVKIWKYNSDAQTYVLESTLEGHSDWVRDVAWSPTVLLRSYLASVSQDRTCIIWTQDNEQGPWKKTLLKEEKFPDVLWRASWSLSGNVLALSGGDNKVTLWKENLEGKWEPAGEVHQ
chain 2: MVKLAEFSRTATFAWSHDKIPLLVSGTVSGTVDANFSTDSSLELWSLLAADSEKPIASLQVDSKFNDLDWSHNNKIIAGALDNGSLELYSTNEANNAINSMARFSNHSSSVKTVKFNAKQDNVLASGGNNGEIFIWDMNKCTESPSNYTPLTPGQSMSSVDEVISLAWNQSLAHVFASAGSSNFASIWDLKAKKEVIHLSYTSPNSGIKQQLSVVEWHPKNSTRVATATGSDNDPSILIWDLRNANTPLQTLNQGHQKGILSLDWCHQDEHLLLSSGRDNTVLLWNPESAEQLSQFPARGNWCFKTKFAPEAPDLFACASFDNKIEVQTLQNLTNTLDEQETETKQQESETDFWNNVSREESKEKPTVFHLQAPTWYGEPSPAAHWAFGGKLVQITPDGKGVSITNPKISGLESNTTLSEALKTKDFKPLINQRLVKVIDDVNEEDWNLLEKLSMDGTEEFLKEALAFDNDESDAQDDANNEKEDDGEEFFQQIETNFQPEGDFSLSGNIEQTISKNLVSGNIKSAVKNSLENDLLMEAMVIALDSNNERLKESVKNAYFAKYGSKSSLSRILYSISKREVDDLVENLDVSQWKFISKAIQNLYPNDIAQRNEMLIKLGDRLKENGHRQDSLTLYLAAGSLDKVASIWLSEFPDLEDKLKKDNKTIYEAHSECLTEFIERFTVFSNFINGSSTINNEQLIAKFLEFINLTTSTGNFELATEFLNSLPSDNEEVKTEKARVLIASGKSLPAQNPATATTSKAKYTNAKTNKNVPVLPTPGMPSTTSIPSMQAPFYGMTPGASANALPPKPYVPATTTSAPVHTEGKYAPPSQPSMASPFVNKTNSSTRLNSFAPPPNPYATATVPATNVSTTSIPQNTFAPIQPGMPIMGDYNAQSSSIPSQPPINAVSGQTPHLNRKANDGWNDLPLKVKEKPSRAKAVSVAPPNILSTPTPLNGIPANAASTMPPPPLSRAPSSVSMVSPPPLHKNSRVPSLVATSESPRASISNPYAPPQSSQQFPIGTISTANQTSNTAQVASSNPYAPPPQQRVATPLSGGVPPAPLPKASNPYAPTATTQPNGSSYPPTGPYTNNHTMTSPPPVFNKPPTGPPPISMKKRSNKLASIEQNPSQGATYPPTLSSSASPLQPSQPPTLASQVNTSAENVSHEIPADQQPIVDFLKEELARVTPLTPKEYSKQLKDCDKRLKILFYHLEKQDLLTQPTIDCLHDLVALMKEKKYKEAMVIHANIATNHAQEGGNWLTGVKRLIGIAEATLN
B3: Sec23/24p (complex, S. cerevisiae)
chain 1: MDFETNEDINGVRFTWNVFPSTRSDANSNVVPVGCLYTPLKEYDELNVAPYNPVVCSGPHCKSILNPYCVIDPRNSSWSCPICNSRNHLPPQYTNLSQENMPLELQSTTIEYITNKPVTVPPIFFFVVDLTSETENLDSLKESIITSLSLLPPNALIGLITYGNVVQLHDLSSETIDRCNVFRGDREYQLEALTEMLTGQKPTGPGGAASHLPNAMNKVTPFSLNRFFLPLEQVEFKLNQLLENLSPDQWSVPAGHRPLRATGSALNIASLLLQGCYKNIPARIILFASGPGTVAPGLIVNSELKDPLRSHHDIDSDHAQHYKKACKFYNQIAQRVAANGHTVDIFAGCYDQIGMSEMKQLTDSTGGVLLLTDAFSTAIFKQSYLRLFAKDEEGYLKMAFNGNMAVKTSKDLKVQGLIGHASAVKKTDANNISESEIGIGATSTWKMASLSPYHSYAIFFEIANTAANSNPMMSAPGSADRPHLAYTQFITTYQHSSGTNRIRVTTVANQLLPFGTPAIAASFDQEAAAVLMARIAVHKAETDDGADVIRWLDRTLIKLCQKYADYNKDDPQSFRLAPNFSLYPQFTYYLRRSQFLSVFNNSPDETAFYRHIFTREDTTNSLIMIQPTLTSFSMEDDPQPVLLDSISVKPNTILLLDTFFFILIYHGEQIAQWRKAGYQDDPQYADFKALLEEPKLEAAELLVDRFPLPRFIDTEAGGSQARFLLSKLNPSDNYQDMARGGSTIVLTDDVSLQNFMTHLQQVAVSGQA
chain 2: MSHHKKRVYPQAQLQYGQNATPLQQPAQFMPPQDPAAAGMSYGQMGMPPQGAVPSMGQQQFLTPAQEQLHQQIDQATTSMNDMHLHNVPLVDPNAYMQPQVPVQMGTPLQQQQQPMAAPAYGQPSAAMGQNMRPMNQLYPIDLLTELPPPITDLTLPPPPLVIPPERMLVPSELSNASPDYIRSTLNAVPKNSSLLKKSKLPFGLVIRPYQHLYDDIDPPPLNEDGLIVRCRRCRSYMNPFVTFIEQGRRWRCNFCRLANDVPMQMDQSDPNDPKSRYDRNEIKCAVMEYMAPKEYTLRQPPPATYCFLIDVSQSSIKSGLLATTINTLLQNLDSIPNHDERTRISILCVDNAIHYFKIPLDSENNEESADQINMMDIADLEEPFLPRPNSMVVSLKACRQNIETLLTKIPQIFQSNLITNFALGPALKSAYHLIGGVGGKIIVVSGTLPNLGIGKLQRRNESGVVNTSKETAQLLSCQDSFYKNFTIDCSKVQITVDLFLASEDYMDVASLSNLSRFTAGQTHFYPGFSGKNPNDIVKFSTEFAKHISMDFCMETVMRARGSTGLRMSRFYGHFFNRSSDLCAFSTMPRDQSYLFEVNVDESIMADYCYVQVAVLLSLNNSQRRIRIITLAMPTTESLAEVYASADQLAIASFYNSKAVEKALNSSLDDARVLINKSVQDILATYKKEIVVSNTAGGAPLRLCANLRMFPLLMHSLTKHMAFRSGIVPSDHRASALNNLESLPLKYLIKNIYPDVYSLHDMADEAGLPVQTEDGEATGTIVLPQPINATSSLFERYGLYLIDNGNELFLWMGGDAVPALVFDVFGTQDIFDIPIGKQEIPVVENSEFNQRVRNIINQLRNHDDVITYQSLYIVRGASLSEPVNHASAREVATLRLWASSTLVEDKILNNESYREFLQIMKARISK

Assay in all cases: liposome flotation
The target in test [1] is T1, MBP–Sec16p (S. cerevisiae, UniProt P48415 1-2195).
T1 sequence (P48415 whole entry): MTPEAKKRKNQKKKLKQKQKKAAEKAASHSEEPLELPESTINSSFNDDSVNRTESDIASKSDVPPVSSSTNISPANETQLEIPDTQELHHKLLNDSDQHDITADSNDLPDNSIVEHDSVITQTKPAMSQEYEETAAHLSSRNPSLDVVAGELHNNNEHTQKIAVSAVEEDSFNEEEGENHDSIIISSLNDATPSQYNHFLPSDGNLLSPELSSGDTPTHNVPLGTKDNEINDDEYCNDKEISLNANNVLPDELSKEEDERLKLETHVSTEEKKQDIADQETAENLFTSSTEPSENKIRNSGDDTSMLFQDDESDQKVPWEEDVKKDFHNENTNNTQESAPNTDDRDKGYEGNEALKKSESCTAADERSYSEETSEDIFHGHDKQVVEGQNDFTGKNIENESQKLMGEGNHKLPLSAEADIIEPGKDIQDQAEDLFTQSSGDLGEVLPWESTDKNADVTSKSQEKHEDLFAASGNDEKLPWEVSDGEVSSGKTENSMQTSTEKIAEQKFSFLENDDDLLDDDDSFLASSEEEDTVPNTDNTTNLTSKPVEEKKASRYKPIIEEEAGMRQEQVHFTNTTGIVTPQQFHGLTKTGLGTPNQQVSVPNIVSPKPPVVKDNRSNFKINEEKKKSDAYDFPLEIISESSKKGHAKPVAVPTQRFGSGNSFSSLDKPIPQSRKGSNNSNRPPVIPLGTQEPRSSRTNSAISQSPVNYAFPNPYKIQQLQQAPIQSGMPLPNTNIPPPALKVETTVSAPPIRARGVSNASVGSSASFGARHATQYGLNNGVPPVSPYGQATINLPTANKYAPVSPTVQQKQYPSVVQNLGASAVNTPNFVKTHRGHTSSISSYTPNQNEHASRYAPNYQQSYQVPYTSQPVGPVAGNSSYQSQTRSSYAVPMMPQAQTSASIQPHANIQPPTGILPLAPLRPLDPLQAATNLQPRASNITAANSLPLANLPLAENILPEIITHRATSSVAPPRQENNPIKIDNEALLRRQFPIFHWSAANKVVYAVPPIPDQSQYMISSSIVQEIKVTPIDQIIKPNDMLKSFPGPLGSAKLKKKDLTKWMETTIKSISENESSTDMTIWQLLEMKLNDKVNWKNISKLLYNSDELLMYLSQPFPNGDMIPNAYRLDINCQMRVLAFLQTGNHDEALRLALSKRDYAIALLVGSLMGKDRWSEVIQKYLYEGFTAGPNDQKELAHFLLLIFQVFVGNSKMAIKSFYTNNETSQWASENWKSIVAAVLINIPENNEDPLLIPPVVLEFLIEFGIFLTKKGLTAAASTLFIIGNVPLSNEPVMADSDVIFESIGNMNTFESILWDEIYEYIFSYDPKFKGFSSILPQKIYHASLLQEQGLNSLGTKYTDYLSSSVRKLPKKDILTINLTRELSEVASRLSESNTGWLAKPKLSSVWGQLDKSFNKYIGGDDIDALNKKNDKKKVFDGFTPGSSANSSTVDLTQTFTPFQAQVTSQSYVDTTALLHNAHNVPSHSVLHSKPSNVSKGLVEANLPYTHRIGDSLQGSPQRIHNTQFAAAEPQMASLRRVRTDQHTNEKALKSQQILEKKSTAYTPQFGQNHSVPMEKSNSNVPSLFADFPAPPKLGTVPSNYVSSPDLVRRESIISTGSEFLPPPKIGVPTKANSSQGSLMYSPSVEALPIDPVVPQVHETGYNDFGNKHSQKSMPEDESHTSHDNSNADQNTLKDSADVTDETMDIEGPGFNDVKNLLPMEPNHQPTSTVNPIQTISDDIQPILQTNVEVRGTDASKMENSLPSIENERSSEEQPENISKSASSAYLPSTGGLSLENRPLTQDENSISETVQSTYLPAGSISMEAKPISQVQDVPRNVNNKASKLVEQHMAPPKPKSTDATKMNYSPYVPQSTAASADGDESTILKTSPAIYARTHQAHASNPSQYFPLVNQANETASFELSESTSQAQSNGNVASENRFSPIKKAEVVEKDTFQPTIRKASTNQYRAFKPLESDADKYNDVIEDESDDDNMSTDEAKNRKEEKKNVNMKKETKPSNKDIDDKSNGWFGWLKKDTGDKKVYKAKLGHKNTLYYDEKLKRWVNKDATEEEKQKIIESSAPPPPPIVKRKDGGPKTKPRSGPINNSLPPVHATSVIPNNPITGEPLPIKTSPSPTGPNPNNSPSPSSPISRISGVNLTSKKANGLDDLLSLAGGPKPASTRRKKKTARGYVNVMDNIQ
The target of the test “Sec23/24p” is B3.
Test [2] addresses T1, MBP–Sec16p. The source holds these as a separate data set.

As to B1, in the test with MBP–Sec16p [1], the binding result is listed as “binds”.

For the molecule B2, the binding result with Sec23/24p is “binds”.

Consider B3, for which the binding result with MBP–Sec16p [2] is given as “binds”.
